Results reported in patent US20200317768A1 (published 2020).

T1: human FcγRIIaR extracellular domain, C-terminal His-tag (human, UniProt P12318 34-217)
T1 construct: also called human FcγRIIa (type R); FcgRIIaR; not shown: His-tag added to C-terminus
T1 chain: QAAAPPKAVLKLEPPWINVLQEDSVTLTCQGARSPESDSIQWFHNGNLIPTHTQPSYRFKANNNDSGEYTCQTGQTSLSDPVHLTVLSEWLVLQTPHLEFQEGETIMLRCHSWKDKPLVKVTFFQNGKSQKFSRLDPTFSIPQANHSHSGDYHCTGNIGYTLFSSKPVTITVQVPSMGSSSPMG


Target: T1, human FcγRIIaR extracellular domain, …
Test: SPR (Biacore), KD of SG1 / KD of variant;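 further: relative to parent M103205H795-SG1 carrying the SG1 human heavy chain constant region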

Binder | KD fold (SG1 = 1) [fold]
M103205H795-MY274/M103202L889-SK1 (antibody, human IgG1, kappa) heavy: QVTLKESGPVLVKPTETLTLTCTVSGIDLSHDDISWVRQAPGKGLEWVGIISYAGSTYYASWAKGRLTISKDTSKNQVVLTMTNMDPVDTATYYCARGVPAYSHGGDLWGQGTLVTVSSASTKGPSVFPLAPSSKSTSGGTAALGCLVKDYFPEPVTVSWNSGALTSGVHTFPAVLQSSGLYSLSSVVTVPSSSLGTQTYICNVNHKPSNTKVDKKVEPKSCDKTHTCPPCPAPELLTGPSVFLFPPKPKDTLMISRTPEVTCVVVDVSDEDPEVKFNWYVDGVEVHNAKTKPREEQYNSTYRVVSVLTVLHQDWLNGKEYKCKVSNKALPKPIEKTISKAKGQPREPQVYTLPPSREEMTKNQVSLTCLVKGFYPSDIAVEWESNGQPENNYKTTPKVLDSDGSFFLYSKLTVDKSRWQQGNVFSCSVMHEALHNHYTQKSLSLSP light: DIVMTQSPATLSLSPGERATLSCTSSQSVYHANWLSWFQQKPGQPPKLLIYWASTLAYGVPSRFSGSGSGTDFTLTISSLQPEDAATYYCAGGYGGGRYAFGQGTKVEIKRTVAAPSVFIFPPSDEQLKSGTASVVCLLNNFYPREAKVQWKVDNALQSGNSQESVTEQDSKDSTYSLSSTLTLSKADYEKHKVYACEVTHQGLSSPVTKSFNRGEC | 6.5
M103205H795-MY278/M103202L889-SK1 (antibody, human IgG1, kappa) heavy: QVTLKESGPVLVKPTETLTLTCTVSGIDLSHDDISWVRQAPGKGLEWVGIISYAGSTYYASWAKGRLTISKDTSKNQVVLTMTNMDPVDTATYYCARGVPAYSHGGDLWGQGTLVTVSSASTKGPSVFPLAPSSKSTSGGTAALGCLVKDYFPEPVTVSWNSGALTSGVHTFPAVLQSSGLYSLSSVVTVPSSSLGTQTYICNVNHKPSNTKVDKKVEPKSCDKTHTCPPCPAPELLMGPSVFLFPPKPKDTLMISRTPEVTCVVVDVSDEDPEVKFNWYVDGVEVHNAKTKPREELYNSTYRVVSVLTVLHQDWLNGKEYKCKVSNKALPKPIEKTISKAKGQPREPQVYTLPPSREEMTKNQVSLTCLVKGFYPSDIAVEWESNGQPENNYKTTPPVLDSDGSFFLYSKLTVDKSRWQQGNVFSCSVMHEALHNHYTQKSLSLSP light: DIVMTQSPATLSLSPGERATLSCTSSQSVYHANWLSWFQQKPGQPPKLLIYWASTLAYGVPSRFSGSGSGTDFTLTISSLQPEDAATYYCAGGYGGGRYAFGQGTKVEIKRTVAAPSVFIFPPSDEQLKSGTASVVCLLNNFYPREAKVQWKVDNALQSGNSQESVTEQDSKDSTYSLSSTLTLSKADYEKHKVYACEVTHQGLSSPVTKSFNRGEC | 0.7
M103205H795-MY276/M103202L889-SK1 (antibody, human IgG1, kappa) heavy: QVTLKESGPVLVKPTETLTLTCTVSGIDLSHDDISWVRQAPGKGLEWVGIISYAGSTYYASWAKGRLTISKDTSKNQVVLTMTNMDPVDTATYYCARGVPAYSHGGDLWGQGTLVTVSSASTKGPSVFPLAPSSKSTSGGTAALGCLVKDYFPEPVTVSWNSGALTSGVHTFPAVLQSSGLYSLSSVVTVPSSSLGTQTYICNVNHKPSNTKVDKKVEPKSCDKTHTCPPCPAPELLIGPSVFLFPPKPKDTLMISRTPEVTCVVVDVSDEDPEVKFNWYVDGVEVHNAKTKPREEQYNSTYRVVSVLTVLHQDWLNGKEYKCKVSNKALPKPIEKTISKAKGQPREPQVYTLPPSREEMTKNQVSLTCLVKGFYPSDIAVEWESNGQPENNYKTTPKVLDSDGSFFLYSKLTVDKSRWQQGNVFSCSVMHEALHNHYTQKSLSLSP light: DIVMTQSPATLSLSPGERATLSCTSSQSVYHANWLSWFQQKPGQPPKLLIYWASTLAYGVPSRFSGSGSGTDFTLTISSLQPEDAATYYCAGGYGGGRYAFGQGTKVEIKRTVAAPSVFIFPPSDEQLKSGTASVVCLLNNFYPREAKVQWKVDNALQSGNSQESVTEQDSKDSTYSLSSTLTLSKADYEKHKVYACEVTHQGLSSPVTKSFNRGEC | 4.4

Continued, values first:

KD fold (SG1 = 1) [fold] | Binder
14.5 | M103205H795-MY292/M103202L889-SK1 (antibody, human IgG1, kappa) heavy: QVTLKESGPVLVKPTETLTLTCTVSGIDLSHDDISWVRQAPGKGLEWVGIISYAGSTYYASWAKGRLTISKDTSKNQVVLTMTNMDPVDTATYYCARGVPAYSHGGDLWGQGTLVTVSSASTKGPSVFPLAPSSKSTSGGTAALGCLVKDYFPEPVTVSWNSGALTSGVHTFPAVLQSSGLYSLSSVVTVPSSSLGTQTYICNVNHKPSNTKVDKKVEPKSCDKTHTCPPCPAPELLGYPSVFLFPPKPKDTLMISRTPEVTCVVVDVSDEDPEVKFNWYVDGVEVHNAKTKPREELYNSTYRVVSVLTVLHQDWLNGKEYKCKVSNKALPKPIEKTISKAKGQPREPQVYTLPPSREEMTKNQVSLTCLVKGFYPSDIAVEWESNGQPENNYKTTPMVLDSDGSFFLYSKLTVDKSRWQQGNVFSCSVMHEALHNHYTQKSLSLSP light: DIVMTQSPATLSLSPGERATLSCTSSQSVYHANWLSWFQQKPGQPPKLLIYWASTLAYGVPSRFSGSGSGTDFTLTISSLQPEDAATYYCAGGYGGGRYAFGQGTKVEIKRTVAAPSVFIFPPSDEQLKSGTASVVCLLNNFYPREAKVQWKVDNALQSGNSQESVTEQDSKDSTYSLSSTLTLSKADYEKHKVYACEVTHQGLSSPVTKSFNRGEC
2.8 | M103205H795-MY281/M103202L889-SK1 (antibody, human IgG1, kappa) heavy: QVTLKESGPVLVKPTETLTLTCTVSGIDLSHDDISWVRQAPGKGLEWVGIISYAGSTYYASWAKGRLTISKDTSKNQVVLTMTNMDPVDTATYYCARGVPAYSHGGDLWGQGTLVTVSSASTKGPSVFPLAPSSKSTSGGTAALGCLVKDYFPEPVTVSWNSGALTSGVHTFPAVLQSSGLYSLSSVVTVPSSSLGTQTYICNVNHKPSNTKVDKKVEPKSCDKTHTCPPCPAPELLQGPSVFLFPPKPKDTLMISRTPEVTCVVVDVSDEDPEVKFNWYVDGVEVHNAKTKPREELYNSTYRVVSVLTVLHQDWLNGKEYKCKVSNKALPKPIEKTISKAKGQPREPQVYTLPPSREEMTKNQVSLTCLVKGFYPSDIAVEWESNGQPENNYKTTPPVLDSDGSFFLYSKLTVDKSRWQQGNVFSCSVMHEALHNHYTQKSLSLSP light: DIVMTQSPATLSLSPGERATLSCTSSQSVYHANWLSWFQQKPGQPPKLLIYWASTLAYGVPSRFSGSGSGTDFTLTISSLQPEDAATYYCAGGYGGGRYAFGQGTKVEIKRTVAAPSVFIFPPSDEQLKSGTASVVCLLNNFYPREAKVQWKVDNALQSGNSQESVTEQDSKDSTYSLSSTLTLSKADYEKHKVYACEVTHQGLSSPVTKSFNRGEC
1.5 | M103205H795-MY279/M103202L889-SK1 (antibody, human IgG1, kappa) heavy: QVTLKESGPVLVKPTETLTLTCTVSGIDLSHDDISWVRQAPGKGLEWVGIISYAGSTYYASWAKGRLTISKDTSKNQVVLTMTNMDPVDTATYYCARGVPAYSHGGDLWGQGTLVTVSSASTKGPSVFPLAPSSKSTSGGTAALGCLVKDYFPEPVTVSWNSGALTSGVHTFPAVLQSSGLYSLSSVVTVPSSSLGTQTYICNVNHKPSNTKVDKKVEPKSCDKTHTCPPCPAPELLHGPSVFLFPPKPKDTLMISRTPEVTCVVVDVSDEDPEVKFNWYVDGVEVHNAKTKPREELYNSTYRVVSVLTVLHQDWLNGKEYKCKVSNKALPKPIEKTISKAKGQPREPQVYTLPPSREEMTKNQVSLTCLVKGFYPSDIAVEWESNGQPENNYKTTPPVLDSDGSFFLYSKLTVDKSRWQQGNVFSCSVMHEALHNHYTQKSLSLSP light: DIVMTQSPATLSLSPGERATLSCTSSQSVYHANWLSWFQQKPGQPPKLLIYWASTLAYGVPSRFSGSGSGTDFTLTISSLQPEDAATYYCAGGYGGGRYAFGQGTKVEIKRTVAAPSVFIFPPSDEQLKSGTASVVCLLNNFYPREAKVQWKVDNALQSGNSQESVTEQDSKDSTYSLSSTLTLSKADYEKHKVYACEVTHQGLSSPVTKSFNRGEC
2.4 | M103205H795-MY280/M103202L889-SK1 (antibody, human IgG1, kappa) heavy: QVTLKESGPVLVKPTETLTLTCTVSGIDLSHDDISWVRQAPGKGLEWVGIISYAGSTYYASWAKGRLTISKDTSKNQVVLTMTNMDPVDTATYYCARGVPAYSHGGDLWGQGTLVTVSSASTKGPSVFPLAPSSKSTSGGTAALGCLVKDYFPEPVTVSWNSGALTSGVHTFPAVLQSSGLYSLSSVVTVPSSSLGTQTYICNVNHKPSNTKVDKKVEPKSCDKTHTCPPCPAPELLVGPSVFLFPPKPKDTLMISRTPEVTCVVVDVSDEDPEVKFNWYVDGVEVHNAKTKPREELYNSTYRVVSVLTVLHQDWLNGKEYKCKVSNKALPKPIEKTISKAKGQPREPQVYTLPPSREEMTKNQVSLTCLVKGFYPSDIAVEWESNGQPENNYKTTPPVLDSDGSFFLYSKLTVDKSRWQQGNVFSCSVMHEALHNHYTQKSLSLSP light: DIVMTQSPATLSLSPGERATLSCTSSQSVYHANWLSWFQQKPGQPPKLLIYWASTLAYGVPSRFSGSGSGTDFTLTISSLQPEDAATYYCAGGYGGGRYAFGQGTKVEIKRTVAAPSVFIFPPSDEQLKSGTASVVCLLNNFYPREAKVQWKVDNALQSGNSQESVTEQDSKDSTYSLSSTLTLSKADYEKHKVYACEVTHQGLSSPVTKSFNRGEC
15.1 | M103205H795-MY293/M103202L889-SK1 (antibody, human IgG1, kappa) heavy: QVTLKESGPVLVKPTETLTLTCTVSGIDLSHDDISWVRQAPGKGLEWVGIISYAGSTYYASWAKGRLTISKDTSKNQVVLTMTNMDPVDTATYYCARGVPAYSHGGDLWGQGTLVTVSSASTKGPSVFPLAPSSKSTSGGTAALGCLVKDYFPEPVTVSWNSGALTSGVHTFPAVLQSSGLYSLSSVVTVPSSSLGTQTYICNVNHKPSNTKVDKKVEPKSCDKTHTCPPCPAPELLGYPSVFLFPPKPKDTLMISRTPEVTCVVVDVSEEDPEVKFNWYVDGVEVHNAKTKPREELYNSTYRVVSVLTVLHQDWLNGKEYKCKVSNKALPKPIEKTISKAKGQPREPQVYTLPPSREEMTKNQVSLTCLVKGFYPSDIAVEWESNGQPENNYKTTPKVLDSDGSFFLYSKLTVDKSRWQQGNVFSCSVMHEALHNHYTQKSLSLSP light: DIVMTQSPATLSLSPGERATLSCTSSQSVYHANWLSWFQQKPGQPPKLLIYWASTLAYGVPSRFSGSGSGTDFTLTISSLQPEDAATYYCAGGYGGGRYAFGQGTKVEIKRTVAAPSVFIFPPSDEQLKSGTASVVCLLNNFYPREAKVQWKVDNALQSGNSQESVTEQDSKDSTYSLSSTLTLSKADYEKHKVYACEVTHQGLSSPVTKSFNRGEC
